Measured values published in the nanobody polyreactivity screen of Harvey et al. (2022).

Assay: yeast display, Sf9 membrane polyspecificity reagent, FACS + sequencing; frameworks hold sequencing errors
Outline: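 Polyreactivity labels are assigned by the sorting gate from which each nanobody was recovered. The gates were low and high (top ~1%), set on anti-HA fluorescence for expression and streptavidin fluorescence for reagent binding. Before sorting, galactose-induced (36–48 hours) yeast display cells were stained for 1 hour at 4 °C with 10% biotinylated, detergent-solubilized Sf9 membrane reagent.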

| Sequence | polyreactivity (PSR sort gate) |
| --- | --- |
| QVQLVESGGGLVQAGGSLRLSCAASGFIFARYGMGWYRQAPGKERELVAAIRTSGGTYYADSVKGRFTISRDNAKNTVYLQMNSLKPEDTAVYYCNVYRRVIWPKNYDYWGQGTQVTVSS | high polyreactivity |
| QVQLVESGGGLVQAGGSLRLSCAASGSTFKSYAMGWYRQEPGKERELVAAITVSGGSTYYADSVKGRFTISRDNAKNTVYLQMNSLKPEDTAVYYCAADSVLLKDTGYDYWGQGTQVTVSS | low polyreactivity |
| QVQLVESGGGLVQAGGSLRLSCAASGGTLKYYAMGLYRQAPGKERELVATISSRGGSTYYADSVKGRFTISRDNAKNTVYLQMNSLKPEDTAVYYCARRYWVQSRYPELDYWGQGTQVTVSS | high polyreactivity |
| QVQLVESGGGLVQAGGSLRLSCAASGSSFGWYGMGWYRQAPGKERELVASINWRGSSTYYADSVKGRFTISRDNSKNTVYLQMNSLKPEDTAVYYCATTRDWAYNYWGQGTQVTVSS | low polyreactivity |
| QVQLVESGGGLVQAGGSLRLSCAASGRIFGQNAMGWYRQSPGKERELVAVITSRGTRTYYADSVKGRFTISRDNAKNTVYLQMNSLNQEDTAVYYCAADVYSDNYKTWPYDYWGQGTQVTVSS | low polyreactivity |
| QVQLVESGGGLVQAGGRLRLSCAASGSIFITYDMGWYRQAPGKERELVATISTTGGTTYYADSVKGRFTISRDNAMNTVYLQMNSLKPEDTAVYYCAADWRYLYYALDYWGQGTQVTVSS | low polyreactivity |
| QVQLQESGGGLVQAGGSLRLSCAASGPISRRSTMGWYRQAPGKERELVTAITRGTNTNYADSVKGRFTISRDNAKNTEYLQMYCLKPEDTAVYYCAAYGVLKPSRGDAVFHRYWGQGTQVTVSS | low polyreactivity |
| QVQLVESVGGLVQAGGSLRLSCAASGSIFWSNAMGWYRQAPGKERELVARISTSGGRTYYADSVKGRFTISRDNAKNTVYLQMNSLKPEDTAVYYCNAGKLYYRWLYDYWGQGTQVTVSS | high polyreactivity |
| QVQLVESGGGLVQAGGSLRLSCAASGSIFRRNVMGWYRQAPGKERELVAAITGSGGSTYYADSVKGRFTISRDNAKNTVYLQMNSLKPEDTAVYYCAKVPYYSRPHDYWGQGTQVTVSS | high polyreactivity |
| QVQLVESGGGLVQAGGILRLSCAASGITFRYYAMGWYRQAPGKERELVAAITGNGGGTYADSVKGRFTISRDTAKYTGYLQMNSLKPEVTAVNYCSADYGRRWGYDYWGQGTQVTVSS | low polyreactivity |
| QVQLVESGGGLVQAGGSLRLSCAASGSYLRYYAMGWYRQAAGKERELVAAISRSVTNTYYADSVKGRFTISRDYAKNTVYLQMNSLKPEDTAVDYCARVQYVRNVQYRYGGWYTRYYWGQGTQVTVSS | high polyreactivity |
| QVQLVESGGGLVQAGGSLRLSCAASGRTYRVYAMGWYRQAPGKERELVASITRGGGTYADSVKGRFTISRDNAKNTVYLQMNSLKAEDTAVYYCNARWHRSTGGRQRYDYWGQGTQVTVSS | high polyreactivity |
| QDQLVESAVGLVQAGGSLRLSCDASGSTFDFYDIGWYRQAPGKERELVATIRWSGDTTYYADSVKGRFTISRDNAKNTVYLQMTRLKPEDTAVYYCNADYFGQESWWMDYWGQGTQVTVSS | low polyreactivity |
| QVQLVESGGGLVQAGGSLRLSCAASGFTFWRYTMGWYRQAPGKERELVAAINWSGGRTYYADSVKGRFTISRDNAKNTVYLQMNSLKPEDTAVYYCATGYSTSVGGSQGDSWGQGTQVTVSS | high polyreactivity |
| QVQLVESGGGLVQAGGSLRLSCAASGFTFYPNTMGWYRQAPGKERELVAAISSSGGRTYYSDSVKGRFTISRDNAKNTVYLQMNSLKPEDTAVYYCNAAKWLTSGGLDYWGIGTQVTVSS | high polyreactivity |
| QVQHVESGGGLVQAGGSLRLSCAASGFIFAWYTMGWDRQAPGKERELVAAISRSGVRTYYADSVKGRFTISRDNAKNTVYLQMNSLKPEDTAVYYCAVDWYPTMDYWGQGTQVTLSS | high polyreactivity |
| QVQLVESGGGLVQAGGSLRLSCAASGSILDSNAMGWYRQAPGKERELVAAITSGGSTYYADSVKGRFTISRDNAKNTVYLQKNSLKPEDTAVYYCDTPVASVTGYDYWGQGTQVTVSS | low polyreactivity |
| QVQLEESGGGLVQAGGSLRLSCAASGGILVFYALGWYRQAPGTERELVAAINVSGRSTYYADSVKGRFTISRDNAKNTVYVQMNSLKPEDTAVYYCAADYYYVWYDYWGQGTQVTVSS | low polyreactivity |
| QVQLVESGGGLVQAGGSLRLSCAASGLIFYDNMGWYRQAPGKERELVAAISSSGGSTSYADSVKGRFTISRDNAKNTVYLQMNSLKPADTAVYYCAADSYPAYLGFVGFDYWGQGTQVTVSS | low polyreactivity |
| QVQLVESGGGLVQAGGSLRLTCAASGRIFGAYTMGWYRQEPGKERELVAAISWSGGRTYYADSVKGRFTISRDNAKNTFYLQLNSLNAEDTAVYYCNVRRQSGRYRVYEYDYWGQGTQVTVSS | low polyreactivity |
| HVQLQESGGGLVQAGVSLRLSCAASGNISYSRNMGWYRQAPGKERELVAAIDRGAITYYADSVKGRFTISRDNAKNTVYLQIYSLKPEDTAVYYCAAEYHDRWDHRYWGQGTQVTVSS | high polyreactivity |

| Sequence | polyreactivity (PSR sort gate) |
| --- | --- |
| QVQLVESGGGLVQAGGSLRLSCAASGSIFDPYAMGWYRQAPGKEREFVAALSWSGGSTYYADSVKGRFTISRDNAKNTVYLQMNSLKPEDTAVYYCATDWGDPYGYDYWGQGTQVTVSS | low polyreactivity |
| QVQLVESGGGLVQAGGSLRLSCAASGITFTLYAMGWYRQSPGKERELVAAISRGGGTTYYADSVKGRFTISRDNAKNTVYLQMNSLKPEDTAVYYCATDWHSSGYWGQGTQVTVSS | low polyreactivity |
| QVQLVESGRGLVQAGGSLRLSCADSGRTFGYYGMGWYRQAPGKEREFVAAITRSGGSTYYADSVKGRFTISRDHAKNTVYLQMNSLKPEDTAVYYCAAAHLFTRSRPYDYWGQGTQVTVSS | high polyreactivity |
| PDQLVESGGGLVQAGGSLRLSCAASGLNFYDNMGWYIQATGKERELVSAISSSGGSTSYADSVKGRFTISRDNAKNTVYLQMNSLKPEDTAVYYCAADSSPAYLGFVGFDYWGHGTQVTVSS | low polyreactivity |
| QVQLVESGGGLVQAGGSLRLSCAASGRIFGWNAMGWYRQAPGKERELVAVIDTGGSTNYADSVKGRFTISRDNAKNTVYLQMNSLKPEDTAVYYCAAVTGIRYFTSEYDYWGQGTQVTVSS | low polyreactivity |
| QVQLVESGGGLVQAGGSLRLSCAASGRIFGKYPMGWYRQAPAKERELVAAIRITGGSTYYADSVKGRFTISRDNAKNTVYLQMNSLKPEDTAVYYCAAVYKYADVIYDYWGQGTQVTVSS | high polyreactivity |
| QVHLVESGGGLVQAGGRLRLSCAASGFTIGHYAMAWYRQAPGKERELVAAISSGDRTYYADSVKGRFTISRDNAKNTVYLQMNCLKPEDTAVYFCNGVYYSWAQSARFDYWGQGTQVTVSS | low polyreactivity |
| QVQLVDSGGGLYQAGGSLSLTCAASGSIFDFNAMGWYRQAPGKERELVAAISGSGARTYYADSVKGRFTIARDNAKHTVYLQLNSLKPEDTAVYLCARPYVYGYDSWGQGTQVTFSS | high polyreactivity |
| QVQLVESGGGLVQAGGSLRLSCAASGRTFVYNAMGWYRQAPGKEREFVAAISDGGGDTYYADSVKGRFTISRDNAKNTVYLQMNSLKPEDTAVYYCNVEWQQPGYAFDYWGQGTQVTVSS | low polyreactivity |
| QVQLVESGGGLVQAGGSLRLSCAASGLIFYVYAMGWYRQAPGKERELVASITWSGGRTYYADSVKGRFTISRDNAKNTVYLQMNSLKPEDTAVYFCAKDWWGGPPNVYHSEYEYWGQGTQVTVSS | low polyreactivity |
| QVQLVESGGGLVQAGGSLRLSCAASGSTFYPYAMGWYRQAPGKERELVAAISRIGSRTYYADSVKGRFTISRDNAKNTVYLQMNSLKPEDTAVYYCNASYVLTGQRYGYWGQGTQVTVSS | low polyreactivity |
| QVQLVESGGGLVQAGGSLRLSCAASGYTFLGYAMGWSRQAPGKERELVAAIRRSGGRTYYADSVKGRFTISRDNAKNTVYLQMNSLKPEDTAVYYCAKGYVGEYDYWGQGTQVTVSS | high polyreactivity |
| QVQLVESGGGLVQAGGSLRLSCAASGRTFGFYDMGWYRQAPGKERELVAAIRGSIGYTYYADSVKGRITISRDNAKNTVYLQMTSLKPEDTAVYYCAKAIRYPAAKFYWGQGSQVTVSS | high polyreactivity |
| QVQLVESGGGLVQSGVSLRLSCAASGSIFDPYAMGWYRPAPGKERELVAAITSGGSTYYADSVKGRFTISRDNAKNTVYLQMNSLKPEDTAVYYCAKDFDIYYSKYDYWGQGTQVTVSS | low polyreactivity |
| QVQLVESGGGLVQAGGSLRLSCAASGSIFWFNAMGWYRQAPGNERELVATIRYSGGSTYYADSVKGRFTISRDNAKNTVYLQMNSLKPEDTAVYYCAAVSRYSRSGYEYWGQGTQVTVSS | high polyreactivity |
| QVQLVDSGGGLVQAGGSLRLSCAASGYIFHLYGMGWYRQAPGKERELVARISYRGGSTYYADSVKGRFTISRDNAKNTVYLQMHSLKPEDTAVYYCAKDYYKHYYWGQGTQVTVSS | high polyreactivity |
| QVQLVESGGGLVQAGGSLRLSCAASGSILIWNTMGWYRQAPGKERELVAAISISGGSTYYADSVKGRFTISRDNAKNTVYLQVNSLKPEDTAVYYCAAEVAYYYYSWGTSGYWGQGTQVTVSS | low polyreactivity |
| QVQLVESGGGLVQAGGSLRLSCAASGRTFYQYAMGWYRQAPGKERELVAAISRRGGSTYYADSVKGRFTISRDNAKNTVYLQMNSLKPEDTAVYYCAARVRGKYDYWGQGTQVTVSS | high polyreactivity |
| QVQLVESGGGLVQAGGSLRLSCAASGSIFYLYVMGWYRQAPGKERELVAAINWSGSRTYYADSVKGRFTISRDNAKNTVYLQMNSLKPEDTAVYYCNAVRATGQASQEGEYWGQGTQVTVSS | high polyreactivity |
| QVQLVDSGGGLVQAGGTLRLSCSASGRTFPTYAMGWYRQAPGKEREVVAAISSSGCSTYYADSVKGRFTISRDNAKNSVYLQMHSLKPEDTAVYYCAALRDRNLNPGYDYWGQGTQLTVSS | low polyreactivity |
